From patent US20230192896A1 (published 2023)
Changes are numbered by the printed parent chain.

B1: BIIB-9-451 (antibody, V domains shown)
VH: QLQLQESGPGLVKPSETLSLTCTVSGGSISSSSYYWGWIRQPPGKGLEWIGSISYSGSTYYNPSLKSRVTISVDTSKNQFSLKLSSVTAADTAVYYCARDSGGYYYQGFDYWGQGTLVTVSS
VL: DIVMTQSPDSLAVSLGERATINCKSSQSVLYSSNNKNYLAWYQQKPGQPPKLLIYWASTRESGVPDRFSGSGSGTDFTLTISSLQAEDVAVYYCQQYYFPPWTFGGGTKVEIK
B2: BIIB-9-628 (antibody, V domains shown)
VH: QVQLVQSGAEVKKPGASVKVSCKASGYTFTSYYMHWVRQAPGQGLEWMGIINPSGGSTSYAQKFQGRVTMTRDTSTSTVYMELSSLRSEDTAVYYCAREPIAYGATLDLWGRGTLVTVSS
VL: EIVLTQSPGTLSLSPGERATLSCRASQSVSSDYLAWYQQKPGQAPRLLIYGASSRATGIPDRFSGSGSGTDFTLTISRLEPEDFAVYYCQQYVVFPFTFGGGTKVEIK
B3: BIIB-9-588 (antibody, V domains shown)
VH: QVQLVQSGAEVKKPGASVKVSCKASGYTFTSYYMHWVRQAPGQGLEWMGIINPSGGSTTYAQKFQGRVTMTRDTSTSTVYMELSSLRSEDTAVYYCARDGGGSYDYWSGYWYDVWGQGTTVTVSS
VL: EIVMTQSPATLSVSPGERATLSCRASQSVSSNLAWYQQKPGQAPRLLIYGASTRATGIPARFSGSGSGTEFTLTISSLQSEDFAVYYCQQAYNWPFTFGGGTKVEIK
B4: BIIB-9-889 (antibody, V domains shown)
VH: QLQLQESGPGLVKPSETLSLTCTVSGGSISSSSYYWGWIRQPPGKGLEWIGSIYYSGSTYYNPSLKSRVTISVDTSKNQFSLKLSSVTAADTAVYYCARDVGWYTEYFDLWGRGTLVTVSS
VL: B3 VL with Y92F, F96P
B5: BIIB-9-1268 (antibody, V domains shown)
VH: QVQLVQSGAEVKKPGASVKVSCKASGYTFTSYYMHWVRQAPGQGLEWMGIINPSGGSTSYAQKFQGRVTMTRDTSTSTVYMELSSLRSEDTAVYYCARDPPSWYVFDIWGQGTMVTVSS
VL: B3 VL with V13L, N32Y, G50D, T53N, E70D, Q79E, S80P, Y92T, N93V
B6: BIIB-9-619 (antibody, V domains shown)
VH: QVQLVQSGAEVKKPGASVKVSCKASGYTFTSYYMHWVRQAPGQGLEWMGIINPSGGSTSYAQKFQGRVTMTRDTSTSTVYMELSSLRSEDTAVYYCARDGPRVSDYYMDVWGKGTTVTVSS
VL: B3 VL with M4L, V13L, N32Y, G50D, T53N, E70D, Q79E, S80P, A91R, Y92D
B7: BIIB-9-452 (antibody, V domains shown)
VH: B5 VH with P100G, P101R, S102L, W103S, V105T, F106W, I108R, M114L
VL: B3 VL with Y92N, W94F
B8: BIIB-9-566 (antibody, V domains shown)
VH: QVQLVQSGAEVKKPGASVKVSCKASGYTFTSYYMVWVRQAPGQGLEWMGIINPSGGSTSYAQKFQGRVTMTRDTSTSTVYMELSSLRSEDTAVYYCARVPTYRYSYLAFDIWGQGTMVTVSS
VL: B3 VL with N32S, A91H, Y92D, F96P
B9: BIIB-9-1282 (antibody, V domains shown)
VH: B8 VH
VL: B3 VL with A91H, Y92N, N93H, W94L, F96I
B10: BIIB-9-1277 (antibody, V domains shown)
VH: QVQLVQSGAEVKKPGASVKVSCKASGYTFTSYYMHWVRQAPGQGLEWMGIINPSGGSTSYAQKFQGRVTMTRDTSTSTVYMELSSLRSEDTAVYYCARGGTGYYYGSGSRDGYHYYYGMDVWGQGTTVTVSS
VL: B3 VL with N32Y, G50D, T53N, E70D, Q79E, S80P, F83L, A91S, Y92A, F96P
B11: BIIB-9-1287 (antibody, V domains shown)
VH: QLQLQESGPGLVKPSETLSLTCTVSGGSISSSDYYWGWIRQPPGKGLEWIGSIYYSGSTYYNPSLKSRVTISVDTSKNQFSLKLSSVTAADTAVYYCARSPRHKVRGPNWFDPWGQGTLVTVSS
VL: EIVLTQSPGTLSLSPGERATLSCRASQSVSSSYLAWYQQKPGQAPRLLIYGASSRATGIPDRFSGSGSGTDFTLTISRLEPEDFAVYYCQQYHLHPTFGGGTKVEIK
B12: BIIB-9-408 (antibody, V domains shown)
VH: QVQLVQSGAEVKKPGASVKVSCKASGYTFTSYYMHWVRQAPGQGLEWMGIINPSGGSTTYAQKFQGRVTMTRDTSTSTVYMELSSLRSEDTAVYYCARDPGAYDDWSGYDDYGMDVWGQGTTVTVSS
VL: EIVLTQSPATLSLSPGERATLSCRASQSVSSYLAWYQQKPGQAPRLLIYDASNRATGIPARFSGSGSGTDFTLTISSLEPEDFAVYYCQQAFVWPPITFGGGTKVEIK
B13: BIIB-9-567 (antibody, V domains shown)
VH: QVQLVQSGAEVKKPGASVKVSCKASGYTFTSYYMHWVRQAPGQGLEWMGIINPSGGSTSYAQKFQGRVTMTRDTSTSTVYMELSSLRSEDTAVYYCARLGRRYYAYDGMDVWGQGTTVTVSS
VL: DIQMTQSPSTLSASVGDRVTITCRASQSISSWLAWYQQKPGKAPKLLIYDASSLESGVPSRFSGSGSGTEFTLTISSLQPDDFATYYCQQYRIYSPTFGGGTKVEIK
B14: BIIB-9-626 (antibody, V domains shown)
VH: QVQLVQSGAEVKKPGASVKVSCKASGYTFTSYYMHWVRQAPGQGLEWMGVINPSGGSTSYAQKFQGRVTMTRDTSTSTVYMELSSLRSEDTAVYYCARDLQYSMTYFDYWGQGTLVTVSS
VL: DIQMTQSPSTLSASVGDRVTITCRASQSISSWLAWYQQKPGKAPKLLIYKASSLESGVPSRFSGSGSGTEFTLTISSLQPDDFATYYCQQDGSYPPLTFGGGTKVEIK
B15: BIIB-9-473 (antibody, V domains shown)
VH: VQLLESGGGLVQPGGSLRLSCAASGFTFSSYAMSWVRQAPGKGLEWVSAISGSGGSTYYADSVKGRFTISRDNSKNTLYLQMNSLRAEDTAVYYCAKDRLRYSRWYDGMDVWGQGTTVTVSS
VL: EIVLTQSPATLSLSPGERATLSCRASQSVSSYLAWYQQKPGQAPRLLIYDASNRATGIPARFSGSGSGTDFTLTISSLEPEDFAVYYCQQRSFLPYTFGGGTKVEIK
B16: BIIB-9-1266 (antibody, V domains shown)
VH: QVQLVQSGAEVKKPGASVKVSCKASGYTFTSYYMHWVRQAPGQGLEWMGIINPSGGSTSYAQKFQGRVTMTRDTSTSTVYMELSSLRSEDTAVYYCARDHGWAIYGMDVWGQGTTVTVSS
VL: B15 VL with L4M, A51S, S92L, F93N, L94F, Y96F
B17: BIIB-9-565 (antibody, V domains shown)
VH: QLQLQESGPGLVKPSETLSLTCTVSGGSISSSSYYWGWIRQPPGKGLEWIGSIYYSGSTYYNPSLKSRVTISVDTSKNQFSLKLSSVTAADTAVYYCARAGMYSSYANWFDPWGQGTLVTVSS
VL: B15 VL with R91D, F93N, Y96F
B18: BIIB-9-612 (antibody, V domains shown)
VH: B16 VH with H100A, W102Y, A103H, I104W
VL: B15 VL with S31R, R91S, F93L, L94F, Y96L
B19: BIIB-9-416 (antibody, V domains shown)
VH: QVQLVQSGAEVKKPGASVKVSCKASGYTFTSYYMHWVRQAPGQGLEWMGIINPSGGSTSYAQKFQGRVTMTRDTSTSTVYMELSSLRSEDTAVYYCAREGPMLDYPTYSNWFDPWGQGTLVTVS
VL: B15 VL with L4M, A51S, S92V, F93V, L94W, Y96P
B20: BIIB-9-1280 (antibody, V domains shown)
VH: B16 VH with H35V, D99G, H100P, G101W, W102Y, A103S, I104Y, G106Y, Q112K
VL: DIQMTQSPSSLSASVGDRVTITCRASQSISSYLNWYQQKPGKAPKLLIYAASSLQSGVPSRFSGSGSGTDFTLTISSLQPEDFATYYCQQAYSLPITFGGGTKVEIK
B21: BIIB-9-631 (antibody, V domains shown)
VH: QVQLVQSGAEVKKPGASVKVSCKASGYTFTSYYMHWVRQAPGQGLEWMGIINPSGGSTSYAQKFQGRVTMTRDTSTSTVYMELSSLRSEDTAVYYCARAENRGDYEAWGQGTLVTVSS
VL: DIQMTQSPSSVSASVGDRVTITCRASQGISRWLAWYQQKPGKAPKLLIYAASSLQSGVPSRFSGSGSGTDFTLTISSLQPEDFATYYCQQRTSFPLTFGGGTKVEIK
B22: BIIB-9-579 (antibody, V domains shown)
VH: B16 VH with H35V, D99G, H100P, G101W, W102Y, A103S, I104Y, G106Y, Q112K
VL: B21 VL with V11L, G28S, R31S, W32Y, A34N, A50G, R91A, T92F, L96F
B23: BIIB-9-886 (antibody, V domains shown)
VH: QVQLVQSGAEVKKPGASVKVSCKASGYTFTSYYMHWVRQAPGQGLEWMGIINPSGGSTSYAQKFQGRVTMTRDTSTSTVYMELSSLRSEDTAVYYCARDPAHSYLDAFDIWGQGTMVTVSS
VL: B21 VL with R31S, R91A, T92S, L96F
B24: BIIB-9-1286 (antibody, V domains shown)
VH: B8 VH
VL: B21 VL with R31S, A84V, R91A, T92S, L96P
B25: BIIB-9-1265 (antibody, V domains shown)
VH: B4 VH with V101G, G102R, W103H, T105Y, Y107L, L110Y, R113Q
VL: B21 VL with R31S, R91G, T92N, L96I

Target: free FIXa (activated Factor IX) (UniProt P00740 47-191; P00740 227-461)
Assay: BLI

Row | Binder | Kd
1 | B1 | 8.76 nM
2 | B2 | 108 nM
3 | B3 | 16.5 nM
4 | B4 | 40.7 nM
5 | B5 | 51.5 nM
6 | B6 | 11.9 nM
7 | B7 | 11.7 nM
8 | B8 | 21.4 nM
9 | B9 | 43.9 nM
10 | B10 | 58.8 nM
11 | B11 | 0.669 nM
12 | B12 | 1.36 nM
13 | B13 | 20.6 nM
14 | B14 | 166 nM
15 | B15 | 17.2 nM
16 | B16 | 42.6 nM
17 | B17 | 15.8 nM
18 | B18 | 14 nM
19 | B19 | 2.98 nM
20 | B20 | 51.7 nM
21 | B21 | 61.2 nM
22 | B22 | 11.3 nM
23 | B23 | 30.8 nM
24 | B24 | 31.8 nM
25 | B25 | 59.8 nM
